Data published in patent publication US20130039916A1 (Merck Sharp & Dohme, published 2013).
Where “and” joins values, the source holds several entries; their conditions need not be identical. Identical values can stand only once.

T1: "Non-linked" human IL-23 (human p40 coexpressed in 293T cells with human p19:FLAG-tag peptide) (human, UniProt P29460 23-328)
T1 sequence 1: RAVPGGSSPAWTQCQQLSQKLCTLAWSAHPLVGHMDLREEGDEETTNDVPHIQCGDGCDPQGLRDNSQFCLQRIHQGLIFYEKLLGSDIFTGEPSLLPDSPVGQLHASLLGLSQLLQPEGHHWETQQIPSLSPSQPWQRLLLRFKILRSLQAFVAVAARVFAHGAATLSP
T1 sequence 2: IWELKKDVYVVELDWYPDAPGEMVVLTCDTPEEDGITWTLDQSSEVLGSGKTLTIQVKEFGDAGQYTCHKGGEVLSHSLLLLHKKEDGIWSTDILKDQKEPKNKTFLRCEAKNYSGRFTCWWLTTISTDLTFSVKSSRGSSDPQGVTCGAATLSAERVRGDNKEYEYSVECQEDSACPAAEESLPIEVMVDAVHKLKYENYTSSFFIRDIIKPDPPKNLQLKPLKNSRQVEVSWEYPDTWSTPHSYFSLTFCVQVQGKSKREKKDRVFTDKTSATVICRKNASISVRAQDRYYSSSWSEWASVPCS

T2: non-tagged, non-linked native human IL-23p19/p40 coexpressed in SF9 cells (eBioscience CAT No. 34-8239) (human, UniProt P29460 23-328)
T2 sequence 1: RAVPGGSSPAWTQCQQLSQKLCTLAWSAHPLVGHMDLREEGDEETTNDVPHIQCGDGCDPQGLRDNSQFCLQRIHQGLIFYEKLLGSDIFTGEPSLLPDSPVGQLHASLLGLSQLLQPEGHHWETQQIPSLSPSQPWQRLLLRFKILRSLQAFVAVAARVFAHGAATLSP
T2 sequence 2: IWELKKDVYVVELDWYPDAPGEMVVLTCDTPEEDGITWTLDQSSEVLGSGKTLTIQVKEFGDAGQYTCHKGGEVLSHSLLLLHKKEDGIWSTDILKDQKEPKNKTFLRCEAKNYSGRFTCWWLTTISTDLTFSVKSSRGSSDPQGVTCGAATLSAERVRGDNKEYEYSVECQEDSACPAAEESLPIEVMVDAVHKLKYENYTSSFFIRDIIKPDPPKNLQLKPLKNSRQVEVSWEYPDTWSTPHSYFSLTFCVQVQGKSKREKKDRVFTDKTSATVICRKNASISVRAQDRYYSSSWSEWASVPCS

B1: mouse anti-human IL-23p19 antibody 7G10 (antibody, V domains shown)
VH: EVQLQQSGPELVKPGASVKMSCKASGYTFTSNVMHWVKQKPGQGLEWIGYINPYNDGTKYNEKFKGKATLTSDKSSSTAYMELSSLTSEDSAVYYCARNWDVAYWGQGTLVTVSA
VL: DIVMTQSPATLSVTPGDRVSLSCRASQSISDYLHWYRQKSHESPRLLIKYASQSISGIPSRFSGSGSGSDFTLSINSVEPEDVGVYYCQNGHSFPFTFGSGTKLEIKR
B2: mouse anti-human IL-23p19 antibody 13F11 (antibody, V domains shown)
VH: EVQLQQSGPELVKPGASVKMSCKASGHTLTRYLMHWVQQKPGQGLEWIGYINPYNDGTKYNEKFKGKATLTSDKSSSTAYMELSSLTSEDSAVYYCARNWDVAYWGQGTLVTVSA
VL: DIVMTQSPATLSVTPGDRVSLSCRASQTISDYLHWYQQKSHESPRLLIKYASQSISGIPSRFSGSGSGSHFTLSINSVEPEDVGVYYCQNGHSFPFTFGSGTKLEIKR
notes: also called m13F11
B3: mouse anti-human IL-23p19 antibody 33B12 (antibody, V domains shown)
VH: QVQLQQSGAELARPGASVKLSCKASGYTFTSYSLKWVKQRTGQGLEWIGEIHPRSGNTHYNEKFKGKATLTADKSSSTAYMDLRSLTSEDSAVYFCATNWDLGYWGQGTTITVSS
VL: DIVLTQSPATLSVTPGDRVSLSCRASQSISDYLHWFQQRSHESPRLLIKYASQSISGIPSRFSGSGSGSDFTLSINSVEPEDVGVYYCQNGHSFPFTFGSGTKLEIKR
notes: also called m33B12
B4: mouse anti-human IL-23p19 antibody 13B5 (antibody, V domains shown)
VH: EVQLQQSGPELVKPGASVKMSCKASGYTFTRYLMHWVKQKPGQGLEWIGYINPYNDGTNYNEKFKGKATLTSDKSSSTAYMELSSLTSEDSAVYYCARNWDVGGYWGQGTTLTVSS
VL: DIVMTQSPATLSVTPGDRVSLSCRASQSISDYLHWYQQKSHESPRLLIKYASQSISGIPSRFSGSGSGSDFTLSINSVEPEDVGVYYCQNGHSFPFTFGSGTKLEIKR
notes: also called m13B5
B5: mouse anti-human IL-23p19 antibody 6H12 (antibody, V domains shown)
VH: EVHLQQSGPELVKPGASVKMSCKASGYTFNRYLIHWVKQKPGQGLEWIGYINPNNDGTNYNEKFKGKATLTSDKSSSTAYMELSSLTSEDSAVYYCAANWDQAYWGQGTLVTVSA
VL: DIVMTQSPATLSVTPGDRVSLSCRASQSISDYLHWYQQKSHESPRLLIKYTSQSISGIPSRFSGSGSGSDFTLSINSVEPEDVGVYYCQNGHSFPFTFGSGTKLEIKR
notes: also called m6H12
B6: mouse anti-human IL-23p19 antibody 49A10 (antibody, V domains shown)
VH: EVQLQQSGPELVKPGASVKISCKASGYTFTDYYMNWVKQSHGKSLEWFGDINPNNGDTSYNQKFKGKATLTVDKSSSTAYMELRSLTSEDSADYYCARPHYRNWYFDVWGTGTTVIVSS
VL: DIVLTQSPASLVVSLGQRATISCRASKSVSTSGYSFLNWYQQKPGQPPKLLIYLASNLESGVPARFSGSGSGTDFTLNIHPVEAEDATTYYCQHSRELPLTFGSGTKLEMKR
notes: also called m49A10
B7: mouse anti-human IL-23p19 antibody 3D7 (antibody, V domains shown)
VH: QVQLQQSGPELVKPGASVKISCKASGYSFTSYYIHWVKQRPGQGLEWIGWIFPGSGNTKYNEKFKGKATLTADTSSTTAYMQLSSLTSEASAVYFCAREGLHYFGLYAMDYWGHGTSVTVSS
VL: DIQMTQTTSSLSASLGDRVTISCSASQGISNYLNWFQQKPDGTVKLLIYYTSSLHSGVPSRFSGSGSGTDYSLTISNLEPEDIATYYCQQYSKLPYTFGGGTKLEIKR
notes: also called m3D7
B8: humanized anti-human IL-23p19 antibody 7G10 (antibody, human IgG1, kappa, V domains shown)
VH: QVQLVQSGAEVKKPGASVKVSCKASGYTFTSNVMHWVRQAPGQGLEWMGYINPYNDGTKYNEKFKGRVTMTTDTSTSTAYMELRSLRSDDTAVYYCARNWDVAYWGQGTLVTVSS
VL: DIQMTQSPSSLSASVGDRVTITCRASQSISDYLHWYQQKPGKAPKLLIYYASQSISGVPSRFSGSGSGTDFTLTISSLQPEDFATYYCQNGHSFPFTFGQGTKVEIKR
notes: Full-length humanized antibody, human IgG1 / kappa; also called hu7G10; hum7G10
B9: mouse anti-human IL-23p19 antibody 39G2 (antibody, V domains shown)
VH: QVQLQQPGAELVRPGASVKLSCKASGYSFTSSWMNWVKQRPGQGLEWIGMIHPSDSETRTNQKFKDKATLTVDKSSSTAYMQLSSPTSEDSAVYYCARGMITAPTVYWGQGTLVTVSA
VL: DIVLTQSPASLAVSLGQRATISCRASKSVSTSAYSYFHWYQQKPGQPPKLLIYLASNLESGVPARFSGSGSGTDFTLNIHPVEEEDAATYYCQHSRELPWTFGGGTKLEITP
notes: also called m39G2
B10: mouse anti-human IL-23p19 antibody 7D7 (antibody, V domains shown)
VH: QVQLQQSGAELAKPGASVKLSCKASGYTFTNYWMDWVKQRPGQGLEWIGYINPSSGYVEYNQKFKYKATLTADKTSSTAYMQLSSLTYDDSAVYYCARSPPYYYANTYWSFDVWGTGTTVTVSS
VL: DIGLTQSPASLAVSLGQRATISCRASKSVSTSGYSFMHWYQQKPGQPPKLLIYLASNLESGVPARFSGSGSGTDFILNIHPVEEEDAATYYCQHSRELPLAFGAGTKLELTP
notes: also called m7D7
B11: mouse anti-human IL-23p19 antibody 35F12 (antibody, V domains shown)
VH: QVQLQQPGAELMRPGASVRLSCKASGYSFTTSWMNWVKQRPGQGLEWIGMIHPSDSETRLNQNFKDKATLTVDRSSSTAYMQLNSPTSEDSAVYYCARGMITAPSVYWGQGTLVTVSA
VL: DIVLTQSPASLAVSLGQRATISCRASKSVSTSAYSYFHWYQQKPGQPPKLLIYLASNLESGVPARFSGSGSGTDFTLNIHPVEEGDAATYYCQHSRELPWTFGGGTKLEITR
notes: also called m35F12

Columns and labels:
[1] = biological target: T3, "Elastikine" human IL-23 (single chain FLAG-tag:GLU-tag:human p40:elasti-linker:human p19, expressed in 293T … (human, UniProt P29460 23-328)); assay: cell-based or functional assay
[2] = biological target: T1, "Non-linked" human IL-23 (human p40 …); assay: cell-based or functional assay
[3] = biological target: T3, "Elastikine" human IL-23 (single chain …); assay: KinExA, solution equilibrium
Description: (§1) The equilibrium dissociation constant (Kd) for anti human IL-23 antibodies is determined using the KinExA 3000 instrument. Sapidyne Instruments Inc., Boise Id., USA KinExA uses the principle of the Kinetic Exclusion Assay method based on measuring the concentration of uncomplexed antibody in a mixture of antibody, antigen and antibody-antigen complex. The concentration of free antibody is measured by exposing the mixture to a solid-phase immobilized antigen for a very brief period of time. In practice, this is accomplished by flowing the solution phase antigen-antibody mixture past antigen-coated particles trapped in a flow cell. Data generated by the instrument are analyzed using custom software. Equilibrium constants are calculated using a mathematical theory based on the following assumptions:
(§2) 98 micron PMMA particles (Sapidyne, Cat No. 440198) are coated with biotinylated rhIL-23 according to Sapidyne “Protocol for coating PMMA particles with biotinylated ligands having short or nonexistent linker arms”. To make biotinylated rhIL-23, EZ-link TFP PEO-biotin (Pierce, Cat. No. 21219) is used according to manufacturer's recommendations (Pierce bulletin 0874). Experimental procedures are done according to the KinExA 3000 manual.
(§3) KinExA experiments are performed essentially as described at Example 3 of U.S. Patent Application Publication No. 2007/0048315.

[4] = biological target: T2, non-tagged, non-linked native human …; assay: cell-based or functional assay
[5] = biological target: T2, non-tagged, non-linked native human …; assay: KinExA, solution equilibrium
Description: as §1, §2, §3

[6] = biological target: T1, "Non-linked" human IL-23 (human p40 …); assay: KinExA, solution equilibrium
Description: as §1, §2, §3

[7] = biological target: T2, non-tagged, non-linked native human …; assay: BIAcore SPR, antibody immobilised on CM5 chip, IL-23 in solution
Description: BIAcore determinations are performed essentially as described at Example 4 of U.S. Patent Application Publication No. 2007/0048315. Briefly, ligands (anti-IL-23 mAbs) are immobilized on a BIAcore CM5 sensor chip using standard amine-coupling procedure. IL-23 (various forms) is diluted in PBS to produce various concentrations. Kinetic constants for the various interactions are determined using BIAevaluation software 3.1. The Kd is determined using the calculated dissociation and association rate constants. In certain experiments, proteins are used at the following concentrations: anti-IL-23 mAb hu7G10 in PBS at 0.33 mg/mL; anti-IL-23 mAb hu6H12 in PBS at 0.2 mg/mL; bac-wt human IL-23 in PBS at 0.30 mg/mL; eBioscience human IL-23 in PBS at 0.10 mg/mL; N222Q human IL-23 in PBS at 0.33 mg/mL.

[8] = biological target: "Elastikine" human IL-23 (single chain FLAG-tag:GLU-tag:human p40:elasti-linker:human p19, expressed in 293T … (human, UniProt P29460 23-328)); assay: cell-based or functional assay; remark: listed apart in the source

Binder | IC50 (pM), blocking of Ba/F3 cell proliferation [1] | IC50 (pM), blocking of Ba/F3 cell proliferation [2] [pM] | Kd [3] | IC50 (pM), blocking of Ba/F3 cell proliferation [4] | Kd [5] [pM] | Kd [6] [pM] | Kd [7] | IC50 (pM), blocking of Ba/F3 cell proliferation [8] [pM]
B1 | 22 pM and 18 pM | 3000 | – | – | – | – | – | –
B2 | – | – | 11 pM | – | – | – | – | –
B3 | 4 pM and 3 pM | 193 | 6.8 pM | 57 pM | – | – | – | –
B4 | 7 pM and 5 pM | 113 | 22 pM | 31 pM | 55 | – | – | –
B5 | 11 pM and 9 pM | 1500 | 54 pM and 48 pM | 1300 pM and 500 pM | > 1000 | > 1200 | – | –
B6 | – | – | 7.4 pM | – | – | – | – | –
B7 | 3 pM | 37 | 0.84 pM | 2 pM | – | – | – | –
B8 | – | 10000 | – | 7800 pM | – | – | 3200 pM and 9000 pM | 29
B9 | 9 pM and 5 pM | 67 | 19 pM | 11 pM | 620 | 34 | – | –
B10 | – | – | 2.7 pM | – | – | – | – | –
B11 | 15 pM and 5 pM | 73 | 53 pM | 12 pM | > 700 | – | – | –
